{"source": "IntAct's records for PubMed 25946333", "key": {"nemp1_mouse Nemp1 [1]": {"biological_target": "T1, nemp1_mouse Nemp1 (UniProt Q6ZQE4)", "T1 sequence": "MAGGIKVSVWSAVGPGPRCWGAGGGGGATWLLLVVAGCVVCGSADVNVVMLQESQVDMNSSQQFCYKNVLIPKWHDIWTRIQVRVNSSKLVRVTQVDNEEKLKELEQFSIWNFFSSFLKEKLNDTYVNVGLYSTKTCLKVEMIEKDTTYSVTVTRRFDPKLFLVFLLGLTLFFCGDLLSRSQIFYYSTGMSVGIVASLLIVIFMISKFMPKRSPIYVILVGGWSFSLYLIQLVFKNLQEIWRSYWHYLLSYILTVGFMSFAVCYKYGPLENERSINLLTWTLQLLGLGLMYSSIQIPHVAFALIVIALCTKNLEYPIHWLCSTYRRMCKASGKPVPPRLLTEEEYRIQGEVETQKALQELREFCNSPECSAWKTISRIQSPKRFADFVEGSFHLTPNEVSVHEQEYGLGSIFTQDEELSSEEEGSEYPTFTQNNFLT"}, "nemp1_mouse Nemp1 [2]": {"biological_target": "T1, nemp1_mouse Nemp1", "remark": "listed apart in the source"}}}
{"substance": "GTP-binding nuclear protein Ran (Mus musculus) (from UniProt P62827) T42A", "values": [{"measurement": "effect of a mutation on the interaction", "setting": "nemp1_mouse Nemp1 [1]", "value": "disrupting interaction strength"}]}
{"substance": "GTP-binding nuclear protein Ran (Mus musculus) (from UniProt P62827) Q69L", "values": [{"measurement": "effect of a mutation on the interaction", "setting": "nemp1_mouse Nemp1 [1]", "value": "with no effect"}]}
{"substance": "GTP-binding nuclear protein Ran (Mus musculus) (from UniProt P62827) T24N", "values": [{"measurement": "effect of a mutation on the interaction", "setting": "nemp1_mouse Nemp1 [2]", "value": "decreasing interaction strength"}, {"measurement": "effect of a mutation on the interaction", "setting": "nemp1_mouse Nemp1 [1]", "value": "disrupting interaction strength"}]}
